Measured values taken from US12410262B2, “Peptide conjugates of cytotoxins as therapeutics” (Cybrexa 2, Inc., priority 2019, dated 2025).

Tests used:
[1] = Plasma stability studies; format: in vitro ADME; conditions: rat plasma, 100 μM conjugate, 37° C.
Procedure, shortened: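 Conjugate at 100 μM final in rat plasma (diluted from DMSO stock via 100 mM Tris, pH 7.5), incubated at 37° C for up to 24 h, sampled at 0, 4 and 24 h. Samples acid/acetonitrile-extracted and analysed by HPLC; remaining conjugate expressed as peak area relative to time 0 ×100.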

[2] = tested on: HCT116 xenografts; assay: Tumor and bone marrow pharmacokinetics in a mouse model; format: in vivo, athymic nude Foxn^nu mice; conditions: mouse bearing HCT116 xenograft, single IP dose 10 mg/kg
Experimental: Six-week-old female athymic nude Foxn^nu mice were obtained from Taconic Labs (Cat #NCRNU-F) and were housed 5 per cage on Alpha-Dri bedding in a disposable caging system (Innovive). Human HCT116 cancer cells derived from colorectal carcinoma were diluted 1:1 in Phenol Red-free Matrigel and subcutaneously implanted into the left flank of each mouse at a density of 2.5×10^6 cells in 100 μL. When xenografts reached a minimal volume of 300 mm^3, mice were administered a single intraperitoneal injection of 10 mg/kg Compound 11 prepared in a vehicle of 5% mannitol in citrate. Tumor and bone marrow samples were collected from fed, anesthetized mice at 1, 2, 4, 8, 16, 24, 32 and 48 hours after compound administration. Total peptide concentrations in tumor and bone marrow were determined via ELISA.
96-well plates were coated with 100 μL/well of 0.1 μM BSA-labelled peptide prepared in 0.2 M Carbonate-Bicarbonate Buffer, pH 9.4 and incubated overnight at 4° C. Plates were washed 4× with an ELISA wash buffer (PBS+0.05% Tween 20), incubated for 2 hours at room temperature with Blocking Buffer (PBS+5% dry milk+0.05% Tween 20) (300 μL/well) and washed again 4× with ELISA wash buffer. […] Luminescence was read from the plate on a BioTek Cytation 5 plate reader.

[3] = Gastric toxicity study in a mouse model; format: in vivo, athymic nude Foxn^nu mice; conditions: 5.2 μmoles/kg (20 mg/kg) IP once daily for 4 days
Experimental: Six-week-old female athymic nude Foxn^nu mice were obtained from Taconic Labs (Cat #NCRNU-F) and were housed 5 per cage on Alpha-Dri bedding in a disposable caging system (Innovive). Human HCT116 cells derived from colorectal carcinoma were diluted 1:1 in Phenol Red-free Matrigel and subcutaneously implanted into the left flank of each mouse at a density of 2.5×10^6 cells in 100 μL. When xenografts reached a minimal volume of 300 mm^3, mice were administered intraperitoneal doses of vehicle, or 5.2 μmoles/kg of either unconjugated exatecan (equivalent to 2.3 mg/kg exatecan) or Compound 11 (equivalent to 20 mg/kg Compound 11). Compounds were administered once daily for 4 days. At 6 hours after administration of the last dose, mice were euthanized by cervical dislocation and gross necropsy was conducted. Photographs were taken of the stomachs both in situ and ex vivo.

Q: For `CC[C@@]1(O)C(=O)OCc2c1cc1n(c2=O)Cc2c-1nc1cc(F)c(C)c3c1c2[C@@H](NC(=O)O[C@H]1CCCC[C@@H]1SSC[C@H](NC(=O)[C@H](Cc1c[nH]c2ccccc12)NC(=O)[C@H](CC(C)C)NC(=O)[C@H](CC(C)C)NC(=O)[C@H](CC(=O)O)NC(=O)[C@H](CC(C)C)NC(=O)[C@H](CC(C)C)NC(=O)[C@H](CC(C)C)NC(=O)[C@@H](NC(=O)[C@H](CC(=O)O)NC(=O)[C@@H](NC(=O)[C@@H]1CCCN1C(=O)[C@H](Cc1ccccc1)NC(=O)[C@H](CC(C)C)NC(=O)[C@H](CC(C)C)NC(=O)[C@H](CC(=O)O)NC(=O)[C@H](CC(C)C)NC(=O)[C@H](Cc1ccc(O)cc1)NC(=O)[C@H](C)NC(=O)[C@H](CCCNC(=N)N)NC(=O)[C@H](Cc1c[nH]c2ccccc12)NC(=O)[C@@H]1CCCN1C(=O)[C@H](CC(N)=O)NC(=O)[C@H](CCC(N)=O)NC(=O)[C@H](CC(=O)O)NC(=O)[C@H](CC(=O)O)NC(=O)[C@H](C)N)[C@@H](C)O)[C@@H](C)O)C(=O)NCC(=O)O)CC3` [Compound 11], which remaining at 4 h, 100 µM ([1]; 4 hrs) is on record?
A: 108%

Q: What about the remaining at 24 h, 100 µM ([1]; 24 hrs) of the same compound?
A: 107%

Q: And the “peptide concentration in tumor and bone marrow (tumor targeting)” value [2]?
A: effectively targets tumors

Q: What about the “gastric toxicity (stomachs in situ and ex vivo)” value [3] of the same compound?
A: did not display the gastric toxicity
